Literature values as cited in paper PMC8515877.

Molecular target: GnRH receptor (Mus musculus) (UniProt Q01776)
Sequence of UniProt Q01776 (Q01776 whole entry): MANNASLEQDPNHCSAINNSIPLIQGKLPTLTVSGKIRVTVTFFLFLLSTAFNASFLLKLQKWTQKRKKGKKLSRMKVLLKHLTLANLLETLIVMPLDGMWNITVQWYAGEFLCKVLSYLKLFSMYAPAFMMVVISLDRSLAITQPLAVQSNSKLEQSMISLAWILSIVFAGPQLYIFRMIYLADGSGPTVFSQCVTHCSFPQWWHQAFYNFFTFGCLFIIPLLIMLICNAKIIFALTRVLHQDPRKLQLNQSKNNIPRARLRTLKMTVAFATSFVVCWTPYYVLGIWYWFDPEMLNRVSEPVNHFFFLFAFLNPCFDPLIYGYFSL

Sequence of GnRH (P13562 whole entry, looked up): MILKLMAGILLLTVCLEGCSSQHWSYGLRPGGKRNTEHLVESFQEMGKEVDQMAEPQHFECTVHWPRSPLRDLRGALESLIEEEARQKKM

Kd: 1.4 nM
Substance: GnRH (from UniProt P13562)
